This is an account of results in the supplement of paper PMC9112550, “Optimization of the antimicrobial peptide Bac7 by deep mutational scanning” (BMC Biology, 2022).

The data set deals with Escherichia coli TOP10. The experiment in a line: shrunken log2 fold change of peptide-encoding DNA abundance (4.5 h post-induction vs induction); higher = less antimicrobial activity (less host growth inhibition). As to conditions: time post-induction: 4.5 h; library: site-saturation at positions 5, 18, 19, 20.
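Note: peptides expressed intracellularly from a pBAD plasmid library in pooled LB shake-flask culture, induced with 0.3% L-arabinose, DNA abundance read by NGS, three biological replicates, DESeq2 with apeglm shrinkage.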

For the sequence RRIRIRPPRLPRPRPRPRKPPRP, the “shrunken log2 fold change” value is -0.0479.

Take RRIRCRPPRLPRPRPRPEIRPRP: the “shrunken log2 fold change” value is -0.123. For RRIRLRPPRLPRPRPRPQSKPRP the value was -0.224; for RRIRPRPPRLPRPRPRPPMMPRP, 0.0805; for RRIRIRPPRLPRPRPRPCLPPRP, -0.425. In the case of RRIRGRPPRLPRPRPRPYHMPRP, the “shrunken log2 fold change” value was -0.345. Next, RRIRWRPPRLPRPRPRPPAHPRP: 0.498; RRIRIRPPRLPRPRPRPHYEPRP: -0.618; RRIRVRPPRLPRPRPRPLFAPRP: 0.477.

Regarding RRIRWRPPRLPRPRPRPYYIPRP, the “shrunken log2 fold change” value was -0.459. RRIRARPPRLPRPRPRPLAAPRP: the “shrunken log2 fold change” value was found to be 0.942.

As to RRIRNRPPRLPRPRPRPQMSPRP, the “shrunken log2 fold change” value is -0.0396. Next, RRIRKRPPRLPRPRPRPKGIPRP: 0.106; RRIRVRPPRLPRPRPRPGDSPRP: -0.0395. For RRIRDRPPRLPRPRPRPTVHPRP, the “shrunken log2 fold change” value was 0.231.

Take RRIRQRPPRLPRPRPRPNFHPRP: the “shrunken log2 fold change” value was -0.232. On to RRIRVRPPRLPRPRPRPNLPPRP, for which the “shrunken log2 fold change” value is 0.232.

Turning to RRIRSRPPRLPRPRPRPYHCPRP, the “shrunken log2 fold change” value was -0.255. For the sequence RRIRHRPPRLPRPRPRPMSIPRP, the “shrunken log2 fold change” value is -0.0719.

RRIRSRPPRLPRPRPRPNEPPRP: the “shrunken log2 fold change” value is -0.0883. Turning to RRIRSRPPRLPRPRPRPLFHPRP, the “shrunken log2 fold change” value is -0.63. For RRIRVRPPRLPRPRPRPWQSPRP the value was 0.0169; for RRIRVRPPRLPRPRPRPYRTPRP, -0.19; for RRIRKRPPRLPRPRPRPSMCPRP, -0.472. Turning to RRIRRRPPRLPRPRPRPHRTPRP, the “shrunken log2 fold change” value stood at 0.102. For RRIRYRPPRLPRPRPRPNTRPRP the value was -0.703. Next, RRIRHRPPRLPRPRPRPGTQPRP: -0.128; RRIRYRPPRLPRPRPRPTHNPRP: -0.702. Regarding RRIRTRPPRLPRPRPRPGEEPRP, the “shrunken log2 fold change” value is -0.00249. As to RRIRFRPPRLPRPRPRPRWKPRP, the “shrunken log2 fold change” value amounted to 0.217. With RRIRRRPPRLPRPRPRPCWPPRP, the “shrunken log2 fold change” value turned out to be 0.0865. For RRIRARPPRLPRPRPRPKIRPRP the value was 0.379; for RRIRNRPPRLPRPRPRPLNDPRP, -0.0316. Next, RRIRMRPPRLPRPRPRPFQIPRP: -0.0803. On to RRIRFRPPRLPRPRPRPWAAPRP, for which the “shrunken log2 fold change” value is 0.385. Take RRIRKRPPRLPRPRPRPTFRPRP: the “shrunken log2 fold change” value was determined as 0.527. As to RRIRKRPPRLPRPRPRPAYKPRP, the “shrunken log2 fold change” value came to 0.354. With RRIRVRPPRLPRPRPRPSWEPRP, the “shrunken log2 fold change” value was -0.0979. For RRIRHRPPRLPRPRPRPVDYPRP the value was -0.253; for RRIRQRPPRLPRPRPRPICVPRP, -0.307; for RRIRFRPPRLPRPRPRPVYPPRP, -0.477. As for RRIRSRPPRLPRPRPRPYGLPRP, the “shrunken log2 fold change” value was -0.0943. For RRIRTRPPRLPRPRPRPRTQPRP the value was 0.172; for RRIRLRPPRLPRPRPRPPYTPRP, -0.674. Next, RRIRKRPPRLPRPRPRPRMIPRP: -0.00692; RRIRWRPPRLPRPRPRPSFPPRP: -0.0295. Next, RRIRGRPPRLPRPRPRPQTCPRP: 0.403. Consider RRIRGRPPRLPRPRPRPYSHPRP, for which the “shrunken log2 fold change” value was -0.129. Take RRIRHRPPRLPRPRPRPRSFPRP: the “shrunken log2 fold change” value is -0.0488. For RRIRSRPPRLPRPRPRPCCWPRP the value was -0.0914. Take RRIRNRPPRLPRPRPRPTCMPRP: the “shrunken log2 fold change” value was 0.0558.

As to RRIRSRPPRLPRPRPRPFHGPRP, the “shrunken log2 fold change” value was -0.00545. For RRIRARPPRLPRPRPRPYFSPRP, the “shrunken log2 fold change” value was -0.624. Next, RRIRQRPPRLPRPRPRPYHHPRP: -0.186; RRIRRRPPRLPRPRPRPERMPRP: 0.222. RRIRHRPPRLPRPRPRPIEAPRP: the “shrunken log2 fold change” value was -0.131. As for RRIRDRPPRLPRPRPRPHYIPRP, the “shrunken log2 fold change” value was -1.02. For RRIRHRPPRLPRPRPRPHILPRP the value was -0.084; for RRIRKRPPRLPRPRPRPACFPRP, -0.0348. As for RRIRNRPPRLPRPRPRPPGVPRP, the “shrunken log2 fold change” value stood at 0.653. For RRIRVRPPRLPRPRPRPFTQPRP the value was 0.0152; for RRIRKRPPRLPRPRPRPYQNPRP, -0.198; for RRIRCRPPRLPRPRPRPINMPRP, -1.09. With RRIRPRPPRLPRPRPRPINQPRP, the “shrunken log2 fold change” value was -0.24. With RRIRWRPPRLPRPRPRPDPEPRP, the “shrunken log2 fold change” value was 0.159. As to RRIRRRPPRLPRPRPRPNRIPRP, the “shrunken log2 fold change” value amounted to 0.0217. Consider RRIRYRPPRLPRPRPRPWSFPRP, for which the “shrunken log2 fold change” value is -0.522. For RRIRVRPPRLPRPRPRPPWVPRP the value was 0.297; for RRIRYRPPRLPRPRPRPCPEPRP, -0.421; for RRIRERPPRLPRPRPRPYHAPRP, 0.00489. Take RRIRLRPPRLPRPRPRPNIRPRP: the “shrunken log2 fold change” value is -0.585. Next, RRIRFRPPRLPRPRPRPMTWPRP: 0.478; RRIRGRPPRLPRPRPRPEINPRP: 0.797. For RRIRQRPPRLPRPRPRPPLRPRP the value was 0.49; for RRIRIRPPRLPRPRPRPPWKPRP, 0.089; for RRIRFRPPRLPRPRPRPGQKPRP, -0.0331.

In the case of RRIRERPPRLPRPRPRPPHGPRP, the “shrunken log2 fold change” value is 0.19.

As to RRIRNRPPRLPRPRPRPNNYPRP, the “shrunken log2 fold change” value is -1.01. Consider RRIRHRPPRLPRPRPRPDLEPRP, for which the “shrunken log2 fold change” value was -0.00264. RRIRLRPPRLPRPRPRPQMPPRP: the “shrunken log2 fold change” value is -0.417.

For RRIRARPPRLPRPRPRPHVMPRP, the “shrunken log2 fold change” value is -0.0593.

For RRIRFRPPRLPRPRPRPKAQPRP, the “shrunken log2 fold change” value is -0.0881. For RRIRPRPPRLPRPRPRPPEDPRP, the “shrunken log2 fold change” value was 0.695.

For RRIRYRPPRLPRPRPRPKPYPRP, the “shrunken log2 fold change” value was -0.698. Next, RRIRVRPPRLPRPRPRPQLAPRP: 0.402.

Regarding RRIRCRPPRLPRPRPRPGNQPRP, the “shrunken log2 fold change” value is -0.644. Take RRIRDRPPRLPRPRPRPCLWPRP: the “shrunken log2 fold change” value was 0.218. As to RRIRMRPPRLPRPRPRPWVQPRP, the “shrunken log2 fold change” value worked out at 0.015. For RRIRKRPPRLPRPRPRPGDGPRP the value was 3.56. For RRIRFRPPRLPRPRPRPPLFPRP, the “shrunken log2 fold change” value stood at 0.273. For RRIRKRPPRLPRPRPRPTRPPRP the value was 0.764.
